According to patent US20050002950:

Assays:
[1] = biological target: purified human fibronectin, P02751
[2] = biological target: T1, purified human fibrinogen, depleted of fibronectin and plasminogen, P02671
T1 chain 1: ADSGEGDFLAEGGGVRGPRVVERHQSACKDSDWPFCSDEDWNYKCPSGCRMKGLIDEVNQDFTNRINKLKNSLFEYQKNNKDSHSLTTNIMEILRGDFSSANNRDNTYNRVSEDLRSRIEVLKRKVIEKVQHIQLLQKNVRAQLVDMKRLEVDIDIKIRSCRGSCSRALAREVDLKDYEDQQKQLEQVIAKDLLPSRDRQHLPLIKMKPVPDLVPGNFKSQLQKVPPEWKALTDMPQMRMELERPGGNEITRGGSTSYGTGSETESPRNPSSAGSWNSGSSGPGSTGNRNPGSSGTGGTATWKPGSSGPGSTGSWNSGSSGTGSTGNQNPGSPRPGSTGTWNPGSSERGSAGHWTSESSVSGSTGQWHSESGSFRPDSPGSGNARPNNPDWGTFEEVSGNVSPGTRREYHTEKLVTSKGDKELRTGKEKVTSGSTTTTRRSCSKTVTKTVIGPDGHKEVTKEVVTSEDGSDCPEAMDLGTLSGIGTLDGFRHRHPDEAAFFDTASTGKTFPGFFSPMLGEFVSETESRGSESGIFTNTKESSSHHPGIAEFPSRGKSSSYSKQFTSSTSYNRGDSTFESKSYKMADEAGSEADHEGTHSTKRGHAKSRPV
T1 chain 2: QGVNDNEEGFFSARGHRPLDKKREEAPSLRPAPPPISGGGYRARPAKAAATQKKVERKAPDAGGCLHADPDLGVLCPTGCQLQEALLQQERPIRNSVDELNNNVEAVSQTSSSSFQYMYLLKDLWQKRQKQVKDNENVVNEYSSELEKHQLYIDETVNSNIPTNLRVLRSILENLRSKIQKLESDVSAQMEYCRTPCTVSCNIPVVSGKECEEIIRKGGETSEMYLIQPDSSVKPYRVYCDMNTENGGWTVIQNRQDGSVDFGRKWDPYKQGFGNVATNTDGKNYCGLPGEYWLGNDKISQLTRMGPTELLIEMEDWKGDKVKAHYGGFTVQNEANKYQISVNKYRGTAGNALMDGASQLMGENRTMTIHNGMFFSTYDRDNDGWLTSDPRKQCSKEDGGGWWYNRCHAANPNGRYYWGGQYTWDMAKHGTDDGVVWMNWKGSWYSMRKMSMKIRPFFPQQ
T1 chain 3: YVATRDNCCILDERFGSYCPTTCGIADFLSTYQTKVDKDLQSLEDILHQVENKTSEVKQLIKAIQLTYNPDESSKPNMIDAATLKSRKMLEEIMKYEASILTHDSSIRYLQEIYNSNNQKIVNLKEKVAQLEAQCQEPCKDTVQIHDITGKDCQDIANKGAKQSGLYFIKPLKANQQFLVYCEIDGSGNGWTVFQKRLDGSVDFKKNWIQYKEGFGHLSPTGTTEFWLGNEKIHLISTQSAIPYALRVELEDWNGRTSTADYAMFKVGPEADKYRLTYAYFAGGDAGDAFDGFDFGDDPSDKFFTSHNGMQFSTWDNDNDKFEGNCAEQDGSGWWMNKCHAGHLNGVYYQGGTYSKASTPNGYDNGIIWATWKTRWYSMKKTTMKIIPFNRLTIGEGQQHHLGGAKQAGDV

[3] = biological target: purified complement component C3
[4] = biological target: T2, recombinant human C5a, P01031
T2 chain: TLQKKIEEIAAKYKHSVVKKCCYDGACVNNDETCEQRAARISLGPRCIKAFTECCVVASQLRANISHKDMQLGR

purified human fibronectin, P02751, sequence (P02751 other isoform, or with tags, fused parts or gaps): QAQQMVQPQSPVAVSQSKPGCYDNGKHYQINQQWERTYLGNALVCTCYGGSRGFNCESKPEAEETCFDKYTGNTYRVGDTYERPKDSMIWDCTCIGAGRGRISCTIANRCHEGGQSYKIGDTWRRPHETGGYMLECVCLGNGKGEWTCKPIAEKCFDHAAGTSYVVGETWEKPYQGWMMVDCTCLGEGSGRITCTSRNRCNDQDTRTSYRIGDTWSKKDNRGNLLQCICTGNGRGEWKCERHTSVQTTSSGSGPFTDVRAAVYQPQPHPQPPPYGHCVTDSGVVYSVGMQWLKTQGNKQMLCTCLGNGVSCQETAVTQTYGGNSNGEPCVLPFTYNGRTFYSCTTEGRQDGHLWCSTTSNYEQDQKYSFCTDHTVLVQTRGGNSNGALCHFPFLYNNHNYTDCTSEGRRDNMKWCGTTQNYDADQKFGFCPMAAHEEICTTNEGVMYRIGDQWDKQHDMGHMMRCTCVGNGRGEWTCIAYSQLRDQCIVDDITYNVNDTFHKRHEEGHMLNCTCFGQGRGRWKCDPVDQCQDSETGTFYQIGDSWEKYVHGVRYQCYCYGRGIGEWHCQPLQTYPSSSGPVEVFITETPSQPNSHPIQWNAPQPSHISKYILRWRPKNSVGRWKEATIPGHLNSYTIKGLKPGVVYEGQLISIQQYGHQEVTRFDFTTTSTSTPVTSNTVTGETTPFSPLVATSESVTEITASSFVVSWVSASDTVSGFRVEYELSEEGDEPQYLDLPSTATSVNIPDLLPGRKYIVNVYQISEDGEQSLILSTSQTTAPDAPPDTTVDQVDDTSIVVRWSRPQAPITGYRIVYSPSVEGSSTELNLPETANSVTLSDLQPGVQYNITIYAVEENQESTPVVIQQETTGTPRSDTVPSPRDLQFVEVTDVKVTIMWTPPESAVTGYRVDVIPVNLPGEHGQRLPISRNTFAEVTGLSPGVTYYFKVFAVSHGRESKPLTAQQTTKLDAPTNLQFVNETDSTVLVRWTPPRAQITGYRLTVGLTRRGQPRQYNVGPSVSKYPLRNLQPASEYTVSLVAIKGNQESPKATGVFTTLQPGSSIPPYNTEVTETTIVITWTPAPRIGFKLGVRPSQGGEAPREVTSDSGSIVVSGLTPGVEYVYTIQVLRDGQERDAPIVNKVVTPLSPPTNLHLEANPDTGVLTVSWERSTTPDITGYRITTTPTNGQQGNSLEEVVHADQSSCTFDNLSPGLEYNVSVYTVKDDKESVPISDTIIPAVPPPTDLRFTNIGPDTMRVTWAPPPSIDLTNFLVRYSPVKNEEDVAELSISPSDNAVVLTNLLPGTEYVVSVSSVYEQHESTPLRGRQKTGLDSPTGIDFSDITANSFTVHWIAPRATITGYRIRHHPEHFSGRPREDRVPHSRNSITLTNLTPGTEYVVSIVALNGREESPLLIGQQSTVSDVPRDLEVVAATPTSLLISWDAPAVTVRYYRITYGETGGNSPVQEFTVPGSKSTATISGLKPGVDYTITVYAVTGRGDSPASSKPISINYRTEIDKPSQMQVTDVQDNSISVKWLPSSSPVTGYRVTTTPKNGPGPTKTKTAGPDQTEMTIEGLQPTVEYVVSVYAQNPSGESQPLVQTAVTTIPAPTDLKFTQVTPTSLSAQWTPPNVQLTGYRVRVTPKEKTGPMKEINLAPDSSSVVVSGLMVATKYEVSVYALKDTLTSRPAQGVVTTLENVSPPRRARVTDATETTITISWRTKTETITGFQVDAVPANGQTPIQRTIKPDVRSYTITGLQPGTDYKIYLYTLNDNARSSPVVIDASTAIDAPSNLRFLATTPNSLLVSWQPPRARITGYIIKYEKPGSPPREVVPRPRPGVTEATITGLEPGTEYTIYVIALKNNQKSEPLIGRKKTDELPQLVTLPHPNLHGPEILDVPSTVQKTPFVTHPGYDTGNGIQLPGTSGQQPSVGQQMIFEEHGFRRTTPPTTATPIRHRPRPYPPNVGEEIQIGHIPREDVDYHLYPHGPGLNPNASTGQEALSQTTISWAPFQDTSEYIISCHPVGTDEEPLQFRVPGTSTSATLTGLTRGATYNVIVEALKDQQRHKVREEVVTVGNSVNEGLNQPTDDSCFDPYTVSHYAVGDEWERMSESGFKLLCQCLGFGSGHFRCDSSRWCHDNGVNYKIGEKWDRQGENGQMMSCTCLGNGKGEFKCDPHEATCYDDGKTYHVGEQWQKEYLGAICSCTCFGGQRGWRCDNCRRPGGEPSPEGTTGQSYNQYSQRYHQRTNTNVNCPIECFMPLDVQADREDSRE

B1: CspA on whole cells of GBS strain COH1 (compared with the cspA mutant TOH121) (protein)
chain: DSVINKPSDIAVEQQVKDSPTSIANETPTNNTSSALASTAQDNLVTKANNNSPTETQPVTEPHSQATETFSPAANQPVESTQEVSKTPLTKQNLAVKPTPAISKETPQNIDSNKIITVPKVWNTGYKGEGTVVAIIDSGLDTNHDALQLNDSTKAKYQNEQQMNAAKAKAGINYGKWYNNKVIFGHNYVDVNTELKEVKSTSHGMHVTSIATANPSKKDTNELIYGVAPEAQVMFMRVFSDEKRGTGPALYVKAIEDAVKLGADSINLSLGGANGSLVNADDRLIKALEMARLAGVSVVIAAGNDGTFGSGASKPSALYPDYGLVGSPSTAREAISVASYNNTTLVNKVFNIIGLENNKNLNNGLAAYADPKVSDKTFEVGKQYDYVFVGKGNDNDYKDKTLNGKIALIERGDITFTKKVVNAINHGAVGAIIFNNKAGEANLTMSLDPEASAIPAIFTQKEFGDVLAKNNYKIVFNNIKNKQANPNAGVLSDFSSWGLTADGQLKPDLSAPGGSIYAAINDNEYDMMSGTSMASPHVAGATALVKQYLLKEHPELKKGDIERTVKYLLMSTAKAHLNKDTGAYTSPRQQGAGIIDVAAAVQTGLYLTGGENNYGSVTLGNIKDKISFDVTVHNINKVAKDLHYTTYLNTDQVKDGFVTLAPQQLGTFTGKTIRIEPGQTKTITIDIDVSKYHDMLKKVMPNGYFLEGYVRFTDPVDGGEVLSIPYVGFKGEFQNLEVLEKSIYKLVANKEKGFYFQPKQTNEVPGSEDYTALMTTSSEPIYSTDGTSPIQLKALGSYKSIDGKWILQLEQKGQPHLAISPNDDQNQDAVALKGVFLRNFNNLRAKVYRADDVNLQKPLWVSAPQAGDKNYYSGNTENPKSTFLYDTEWKGTTTDGIPLEDGKYKYVLTYYSDVPGSKPQQMVFDITLDRQAPTLTTATYDKDRRIFKARPAVEHGESGIFREQVFYLKKDKDGHYNSVLRQKGEDGILVEDNKVFIKQEKDGSFILPKEVNDFSHVYYTVEDYAGNLVSAKLEDLINIGNKNGLVNVKVFSPELNSNVDIDFSYSVKDDKGNVIKKQHHGKDLNLLKLPFGTYTFDLFLYDEERANLISPQSVTVTISEKDSLKDVLFKVNLLKKAALLVEFDKLLPKGATVQLVTKTNTVVDLPKATYSPTDYGKNIPVGDYRLNVTLPSGYSTLENLDDLLVSVKEGQVNLTKLTLINKAPLINALAEQTDIISQPVFYNAGTHLKNNYLANLEKAQTLIKNRVEQTSIDNAIAALRESRQALNGKETDTSLLAKAILAETEIKGNYQFVNASPLSQSTYINQVQLAKNLLQKPNVTQSEVDKALENLDIAKNQLNGHETDYSGLHHMIIKANVLKQTSSKYQNASQFAKENYNNLIKKAELLLSNRQATQAQVEELLNQIKATEQELDGRDRVSSAENYSQSLNDNDSLNTTPINPPNQPQALIFKKGMTKESEVAQKRVLGVTSQTDNQKIKTNKLPKTGESTPKITYTILLFSLSMLGLATIKLKSIKRE
In the case of B1, the “degradation of the test substrate (Coomassie-stained SDS-PAGE or Western blotting)” value [1] is reported as “No difference in the cleavage of the test substrates was observed for all substrates except fibrinogen when the mutant and wild-type strains were compared”, the “fibrinogen degradation assay (SDS-PAGE of supernatant after 16 h with whole GBS)” value [2] is reported as “COH1 cleaved the minor species (corresponding to the lower band of the doublet) of the α subunit, while the mutant did not cleave fibrinogen under the conditions employed” and the “degradation of the test substrate (Coomassie-stained SDS-PAGE or Western blotting)” value [3] is reported as “No difference in the cleavage of the test substrates was observed for all substrates except fibrinogen when the mutant and wild-type strains were compared”. The “C5a protease activity (C5a-stimulated PMN adherence to gelatin-coated plastic after preincubating C5a with GBS)” value [4] was “inactivation of CspA did not appear to have a detectable effect on C5a activity”.
